PMC11046469, “Leveraging a Phage-Encoded Noncanonical Amino Acid: A Novel Pathway to Potent and Selective Epigenetic Reader Protein Inhibitors” (ACS Central Science, 2024)

Target: T1, ENL YEATS domain (AviSUMO-ENL YEATS) (Homo sapiens, UniProt Q03111)
T1 construct: encoding ENL YEATS (aa 1−148) was cloned in pET28a-; made in house; host or cells: E. coli BL21(DE3pLysS), co-expressed with BirA (pBirAcm)
T1 sequence (Q03111 1-148): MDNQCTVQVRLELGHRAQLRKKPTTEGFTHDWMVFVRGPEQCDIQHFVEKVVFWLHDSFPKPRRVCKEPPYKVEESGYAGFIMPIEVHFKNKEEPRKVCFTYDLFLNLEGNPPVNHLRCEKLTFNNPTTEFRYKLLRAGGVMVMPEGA
Assay: Phage panning of BuK-containing 7-mer library against AviSUMO-ENL YEATS with Illumina NGS abundance
Conditions: TAG = amber codon (BuK); for n (number of NGS reads of the 7-mer sequence V1-V7) / percent (share of NGS reads of the 7-mer sequence V1-V7): sheet ENLR3: round 3 of selection against ENL YEATS; for n (number of NGS reads of the unique amino acid sequence) / percent (share of sequence reads): sheet ENLR3: round 3 of panning against ENL YEATS, 7-mer library positions V1-V7
Description: We utilized a previously established amber-obligate 7-mer phage display library to develop a phage display library enriched with BuK-containing 7-mer peptides. For detailed characterizations, including analysis of amber codon percentages, NNK trinucleotide analysis, and amino acid distribution at each position within the library, please refer to the work of Tharp et al.[10] Furthermore, the comprehensive raw NGS data for the amber-obligate 7-mer phage library can be found in the NCBI’s Sequence Read Archive, under the accession ID PRJNA606283. To produce the BuK-containing 7-mer phage library, the phages were produced in the presence of 5 mM BuK using TOP10 cells harboring the following three plasmids: (1) pADL-gIII, which contains the 7-mer amber-obligate peptide-coding DNA library positioned at the N-terminus of M13 pIII gene; (2) pCDF-BuKRS, which encodes BuKRS and its cognate tRNA^Pyl for the genetic incorporation of BuK at amber codons in the 7-mer library; and (3) M13KO7TAA, a helper phage plasmid engineered to have a TAA mutation at pIII so that its lack of a functional pIII allows an efficient multivalent display of the 7-mer library. The ENL YEATS domain containing an N-terminal AviSUMO-Tag was recombinantly expressed in E. coli together with BirA, a biotin ligase, for site-specific biotinylation at the AviTag. The biotinylated AviSUMO-ENL YEATS was immobilized on streptavidin-coated magnetic beads for panning with the BuK-containing phages. […] Phage libraries collected from the first and third rounds of selection were sequenced using Illumina next generation sequencing (NGS) and all sequenced data are available through the NCBI SRA database (Project PRJNA1041845). To prevent possible sequencing errors from affecting conclusions, sequences were filtered using previously published paired-end processing,[10] where any sequences containing more than one mismatch in the nonlibrary region or any mismatch in the library region were discarded. The NGS data provided DNA sequences encompassing both the library and nonlibrary regions. In our analysis, we included data from the nonlibrary region as a stringent quality control measure to filter out low-quality data. For our analysis, we utilized 51 nucleotides from the NGS output, with 21 nucleotides encoding the library region and an additional 30 nucleotides for the nonlibrary region. […] Among all the sequences, only 85 of them contained more than 100 copies (blue area), while the remaining sequences all had low abundances (<10^2 copies, dark and light gray areas), which constituted 85.2% of the first round population. After three panning rounds, the selection converged to two highly enriched sequences: YDVYCYX (ENL-S1) and WWIIEXG (ENL-S2, X denotes BuK). Out of 551 different unique sequences collected from the third round, ENL-S1 and ENL-S2 represented 85% of the entire library (Figure 2A and Figures S6–S8). Both peptide sequences corresponded to their own unique DNA sequence, rather than there being varying codons encoding the same amino acids (Figure S7). […] Two motifs were found in the majority of sequences with high abundance (greater than 0.1%) (Figure S6). A Y(C/L)Y pattern was identified in the residues adjacent to BuK in four of the eight top sequences. Also, an H(L/Y)(T/V)LFXG (X denotes BuK) motif was observed, albeit at lower abundances, in two of the top sequences. In the initial round of selection, we observed that only a small percentage of phages were eluted, which aligns with typical outcomes in phage selection experiments since only a low copy number of phages can bind to the target.[10],[45] With each successive round of selection, we noted a gradual increase in the percentage of phages eluted. This incremental, rather than sharp, increase was attributed to the intensification of selection pressures, such as the application of more stringent washing protocols. We aimed for the incremental increase to retain potent clones with low copy numbers from the previous selection cycle. […]

Sequence | n (number of NGS reads of the 7-mer sequence V1-V7) | percent (share of NGS reads of the 7-mer sequence V1-V7) | n (number of NGS reads of the unique amino acid sequence) | percent (share of sequence reads)
QCSPRTAGD | 1 | 0.0009106% | – | –
QFGPRTAGD | – | – | 6 | 0.005464%
QTAGERNAC | 1 | 0.0009106% | – | –
QWGPRTAGD | 1 | 0.0009106% | – | –
QYGPRTAGD | – | – | 2 | 0.001821%
RLTLFTAGG | 1 | 0.0009106% | – | –
RTAGTESQL | 1 | 0.0009106% | – | –
RTVYCHTAG | 1 | 0.0009106% | – | –
RTVYCYTAG | – | – | 142 | 0.1293%
RWIIETAGG | – | – | 7 | 0.006374%
RWVAGPTAG | 1 | 0.0009106% | – | –
SCPPRTAGD | – | – | 10 | 0.009106%
SGVGFTAGS | 1 | 0.0009106% | – | –
SLYITFTAG | 1 | 0.0009106% | – | –
SMHACTAGT | – | – | 2 | 0.001821%
SMMTAGSST | 1 | 0.0009106% | – | –
SQCTAGECA | – | – | 2 | 0.001821%
SSGTAGKCV | 1 | 0.0009106% | – | –
STAGTEIYC | 1 | 0.0009106% | – | –

Sequence | n (number of NGS reads of the 7-mer sequence V1-V7) | percent (share of NGS reads of the 7-mer sequence V1-V7) | n (number of NGS reads of the unique amino acid sequence) | percent (share of sequence reads)
STTAGKLFI | 1 | 0.0009106% | – | –
SVIYCYTAG | – | – | 9 | 0.008196%
SWIIETAGG | – | – | 5 | 0.004553%
SWSITFTAG | 1 | 0.0009106% | – | –
SWYITFTAG | – | – | 79 | 0.07194%
TAGCGPRYD | 1 | 0.0009106% | – | –
TAGDVYCYTAG | 1 | 0.0009106% | – | –
TAGGSWVPI | 1 | 0.0009106% | – | –
TAGKDQLWN | 1 | 0.0009106% | – | –
TAGNVCGTV | 1 | 0.0009106% | – | –
TAGSSIITC | 1 | 0.0009106% | – | –
TAGTVTFWY | – | – | 3 | 0.002732%
TAGTYYVCR | 1 | 0.0009106% | – | –
TAGVFALVI | 1 | 0.0009106% | – | –
TAGVMSLYS | – | – | 2 | 0.001821%
TAGWIIETAGG | – | – | 6 | 0.005464%
TAIFCYTAG | – | – | 3 | 0.002732%
VWVSTAGMT | 1 | 0.0009106% | – | –

More lines, now with the values ahead:

n (number of NGS reads of the 7-mer sequence V1-V7) | percent (share of NGS reads of the 7-mer sequence V1-V7) | n (number of NGS reads of the unique amino acid sequence) | percent (share of sequence reads) | Sequence
– | – | 5 | 0.004553% | QCVPRTAGD
– | – | 2 | 0.001821% | QRGPRTAGD
1 | 0.0009106% | – | – | RCGPRTAGD
1 | 0.0009106% | – | – | SAVVATAGG
– | – | 2 | 0.001821% | SCVVFTAGI
1 | 0.0009106% | – | – | SLERTAGGF
– | – | 2 | 0.001821% | SLMMCQTAG
1 | 0.0009106% | – | – | STVYCYTAG
– | – | 8 | 0.007285% | SWILWTAGG
1 | 0.0009106% | – | – | TAGAFFCIL
– | – | 3 | 0.002732% | TAGCGPRTAGD
1 | 0.0009106% | – | – | TAGMVHIMV
1 | 0.0009106% | – | – | TAGSFLYSF
1 | 0.0009106% | – | – | TAGSGVASC
– | – | 2 | 0.001821% | TAGTLWNVG
1 | 0.0009106% | – | – | VATAGMWPC
